Data on four molecules can be found in patent publication US20190309079A1 (Regeneron, published 2019).

Experiment [1] deals with T1, extracellular domain of human LEPR (amino acids 22-839 of P48357, Isoform B) with N-terminal myc-myc tag, … (human, UniProt P48357 22-839, GPI anchor at the C-terminus).
T1 construct: also called HEK293/Mycx2-hLepR(Ecto)-GPI anchored cells
T1 sequence: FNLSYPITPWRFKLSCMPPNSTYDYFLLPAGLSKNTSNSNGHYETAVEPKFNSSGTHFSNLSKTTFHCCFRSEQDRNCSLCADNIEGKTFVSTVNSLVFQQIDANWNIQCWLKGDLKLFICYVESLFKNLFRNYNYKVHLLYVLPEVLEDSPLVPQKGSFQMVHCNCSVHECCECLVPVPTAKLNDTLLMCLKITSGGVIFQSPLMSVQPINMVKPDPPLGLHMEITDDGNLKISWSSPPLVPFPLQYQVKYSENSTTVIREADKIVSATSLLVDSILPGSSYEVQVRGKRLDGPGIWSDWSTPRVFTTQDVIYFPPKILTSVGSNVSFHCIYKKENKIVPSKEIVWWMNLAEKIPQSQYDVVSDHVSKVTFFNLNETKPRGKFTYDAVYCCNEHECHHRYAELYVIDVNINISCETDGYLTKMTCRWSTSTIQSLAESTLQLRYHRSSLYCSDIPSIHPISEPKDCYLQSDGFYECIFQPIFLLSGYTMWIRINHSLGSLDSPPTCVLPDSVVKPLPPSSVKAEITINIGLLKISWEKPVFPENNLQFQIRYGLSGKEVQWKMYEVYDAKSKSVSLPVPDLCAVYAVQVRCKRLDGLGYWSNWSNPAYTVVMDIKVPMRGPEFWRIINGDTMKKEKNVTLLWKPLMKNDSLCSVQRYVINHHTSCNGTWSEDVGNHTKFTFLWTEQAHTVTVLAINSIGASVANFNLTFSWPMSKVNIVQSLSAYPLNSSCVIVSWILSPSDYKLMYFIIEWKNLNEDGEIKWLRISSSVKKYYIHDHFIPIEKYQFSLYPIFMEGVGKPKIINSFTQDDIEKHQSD
The experiment can be described thus: FACS, 70 nM Ab, HEK293/hLEPR-GPI, no Leptin.

Experiment [2] addresses T2, LEPR-P316T (signaling-impaired mutant) on HEK293 reporter cells (human, UniProt P48357 22-1165).
T2 sequence: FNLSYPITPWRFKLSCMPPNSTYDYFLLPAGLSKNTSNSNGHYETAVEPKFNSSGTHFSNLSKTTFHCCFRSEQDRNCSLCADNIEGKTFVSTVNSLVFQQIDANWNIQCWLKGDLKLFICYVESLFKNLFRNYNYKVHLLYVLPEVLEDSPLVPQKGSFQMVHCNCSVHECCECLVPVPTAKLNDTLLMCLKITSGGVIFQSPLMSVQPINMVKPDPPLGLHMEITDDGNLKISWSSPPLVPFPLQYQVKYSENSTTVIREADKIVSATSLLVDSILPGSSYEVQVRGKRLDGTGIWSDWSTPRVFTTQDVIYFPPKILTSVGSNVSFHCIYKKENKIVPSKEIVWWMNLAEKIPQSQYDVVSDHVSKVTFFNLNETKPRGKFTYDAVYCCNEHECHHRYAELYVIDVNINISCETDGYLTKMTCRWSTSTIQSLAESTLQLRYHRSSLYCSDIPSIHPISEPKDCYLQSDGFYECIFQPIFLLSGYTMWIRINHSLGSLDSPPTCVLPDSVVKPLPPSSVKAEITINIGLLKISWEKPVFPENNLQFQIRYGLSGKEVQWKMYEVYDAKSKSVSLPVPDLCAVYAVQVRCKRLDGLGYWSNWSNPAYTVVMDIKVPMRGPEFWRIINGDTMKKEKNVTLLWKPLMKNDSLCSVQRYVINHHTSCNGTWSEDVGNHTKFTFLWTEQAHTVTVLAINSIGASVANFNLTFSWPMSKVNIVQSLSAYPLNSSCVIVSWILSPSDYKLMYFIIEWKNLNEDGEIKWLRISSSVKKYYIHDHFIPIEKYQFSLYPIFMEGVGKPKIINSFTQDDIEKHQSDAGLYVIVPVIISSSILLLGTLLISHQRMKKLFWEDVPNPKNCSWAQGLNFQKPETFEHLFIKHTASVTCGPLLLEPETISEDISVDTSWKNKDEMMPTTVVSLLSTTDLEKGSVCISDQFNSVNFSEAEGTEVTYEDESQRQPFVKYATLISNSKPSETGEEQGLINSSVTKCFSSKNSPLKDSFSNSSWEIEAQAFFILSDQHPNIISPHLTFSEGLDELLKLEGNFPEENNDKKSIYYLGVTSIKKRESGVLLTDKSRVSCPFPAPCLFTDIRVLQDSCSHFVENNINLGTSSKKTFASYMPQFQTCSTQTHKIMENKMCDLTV
Kind of experiment: cell-based or functional assay.

B1: H4H17319P2 (antibody, V domains shown)
VH: QVQLVESGGSVVQPGRSLRLSCAASGFTFSTYAMYWVRQTPGKGLEWVAVLYSDGSNKYYIDSVKGRFTISRDTSTNTLYLQMSSLRADDSALYYCARLNWDYWYFDLWGRGTLVTVSS
VL: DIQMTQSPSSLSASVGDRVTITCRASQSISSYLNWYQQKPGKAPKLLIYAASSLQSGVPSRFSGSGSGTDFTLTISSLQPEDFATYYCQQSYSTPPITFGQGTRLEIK
notes: also called REGN4461
As to B1, the “Binding Ratio (normalized to unstained)” value in experiment [1] is 1130 fold.

B2: H4H16679P2 (antibody, V domains shown)
VH: QVQLVESGGGVVQPGRSLRLSCTASGFTFSSYAMYWVRQAPGKGLEWVSVIYYDGSYKYYADSVKGRFTISRDNSKNTLYLQMDSLRAEDTAVYYCASYNWNYWYFDFWGRGTLVTVSS
VL: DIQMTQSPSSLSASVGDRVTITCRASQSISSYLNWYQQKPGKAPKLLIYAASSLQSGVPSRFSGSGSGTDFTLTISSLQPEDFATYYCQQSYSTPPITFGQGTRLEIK
For the molecule B2, the “EC50 (read off the curve), pSTAT3 Y705/STAT3 densitometry” value in experiment [2] was ~3e-10 M. The “Binding Ratio (normalized to unstained)” value in experiment [1] amounted to 1080 fold.

B3: H4H17321P2 (antibody, V domains shown)
VH: QVQLVESGGGVVQPGRSLRLSCEASGFSSSDNAMYWVRQAPGKGLEWVSVIYHDGSYKYYEDSVKGRFTIARDNSKNTLYLQMNSLRAEDTAVYYCARYNWNHWYFDVWGRGTLVTVSS
VL: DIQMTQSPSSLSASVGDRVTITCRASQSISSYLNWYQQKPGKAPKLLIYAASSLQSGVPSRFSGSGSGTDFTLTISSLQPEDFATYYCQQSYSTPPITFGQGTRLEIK
With B3, in experiment [1], the “Binding Ratio (normalized to unstained)” value was determined as 1130 fold.

B4: H4H16650P2 (antibody, V domains shown)
VH: QVQLVESGGGVVQPGKSLRLSCVASGFTFSSDAMYWVRQAPGKGLEWVAVIYYDGNYQYYEDSVKGRFTISRDNSQNTLDLQMNSLRVDDTAVYFCARLNWDYWYLDLWGRGTLVTVSS
VL: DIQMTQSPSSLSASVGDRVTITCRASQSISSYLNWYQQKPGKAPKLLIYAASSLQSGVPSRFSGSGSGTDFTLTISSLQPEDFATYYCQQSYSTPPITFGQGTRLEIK
On to B4, for which the “Binding Ratio (normalized to unstained)” value in experiment [1] was found to be 707 fold.
